From US20060172377, “Site-specific serine recombinases and methods of their use” (published 2006) come the findings set out here.

What all share (conditions): chain copies: 4
For data set [1], the target named is T1, A118 recombinase (Listeria monocytogenes phage A118).
T1 chain: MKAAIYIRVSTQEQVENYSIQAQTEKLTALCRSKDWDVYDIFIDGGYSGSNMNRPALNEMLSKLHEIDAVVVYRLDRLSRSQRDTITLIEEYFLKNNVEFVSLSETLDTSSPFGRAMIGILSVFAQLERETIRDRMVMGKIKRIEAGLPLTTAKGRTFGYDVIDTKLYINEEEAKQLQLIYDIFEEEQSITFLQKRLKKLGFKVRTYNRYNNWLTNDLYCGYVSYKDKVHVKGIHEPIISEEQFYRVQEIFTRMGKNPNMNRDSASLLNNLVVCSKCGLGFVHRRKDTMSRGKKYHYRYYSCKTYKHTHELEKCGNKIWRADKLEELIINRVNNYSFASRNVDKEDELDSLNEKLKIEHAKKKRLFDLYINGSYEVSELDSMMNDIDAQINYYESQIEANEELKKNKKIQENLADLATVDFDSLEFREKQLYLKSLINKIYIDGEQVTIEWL
Kind of data set: cell_activity; attP x attB recombination with N8, tobacco BY2 protoplasts; also active in mammalian cells. The method, then: (§1) Cell suspension cultures of Nicotiana tobacum BY2 were maintained in MS medium in the dark and subcultured weekly (Nagata, T., T. Nemoto, and S. Hasezawa. 1992. Tobacco BY-2 cell line as the Hela cell in the cell biology of higher plants. Intl. Rev. Cytol., 132:1-30). Protoplasts prepared from 3 day-old cultures were resuspended in 0.4 M mannitol and distributed into 35 mm petri dishes in 1 mL aliquots (˜5×10⁵ cells). Protoplasts were mixed with plasmid DNA and electroporated at 0.56 K Volts for 80μ seconds using a square wave electroporation system with Petripulser electrode (BTX, San Diego, Calif., USA). The cells were transfected with 10 μg for the intramolecular recombination test plasmid and 0 or 10 μg for the recombinase expression plasmid. Following the electroporation, protoplasts were diluted with 1 mL of 2× protoplast culture medium (Watanabe, Y., T. Meshi, and Y. Okada. 1987. Infection of tobacco protoplasts with in vitro transcribed tobacco mosaic virus RNA using an improved electroporation method. Virology, 192:264-272), aliquotted as two 1 mL cultures, and incubated at 27° C. for 17 h. Protoplasts were lysed by freeze thawing and addition of 250 μL 5× passive lysis buffer (Promega, Madison, Wis., USA). Twenty μL of cell extract was assayed for luciferase activity using Dual Luciferase Assay kit on a plate reader equipped with injectors. […]

The next data set has as its target T2, Bxb1 recombinase (Mycobacterium smegmatis phage Bxb1).
T2 chain: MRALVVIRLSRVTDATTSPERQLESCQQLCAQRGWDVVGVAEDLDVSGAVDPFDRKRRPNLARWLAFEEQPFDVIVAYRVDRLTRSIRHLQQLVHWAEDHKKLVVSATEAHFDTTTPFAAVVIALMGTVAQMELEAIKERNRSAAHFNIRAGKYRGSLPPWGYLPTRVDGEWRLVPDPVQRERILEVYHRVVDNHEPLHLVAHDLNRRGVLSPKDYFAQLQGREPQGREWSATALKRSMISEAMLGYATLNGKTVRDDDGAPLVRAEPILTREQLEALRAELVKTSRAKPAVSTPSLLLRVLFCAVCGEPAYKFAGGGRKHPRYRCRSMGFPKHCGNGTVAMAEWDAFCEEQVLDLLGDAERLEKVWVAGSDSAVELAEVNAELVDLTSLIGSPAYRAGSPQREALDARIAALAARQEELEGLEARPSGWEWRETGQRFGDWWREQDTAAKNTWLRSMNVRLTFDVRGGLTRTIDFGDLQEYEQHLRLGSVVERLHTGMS
Description: cell_activity; partner of N5, NIH3T3; chromosomal integration also seen (Tables 1-2). The procedure:
Cells were maintained at 37° C. and 5% CO₂ in DMEM supplemented with 10% fetal bovine serum and 1% penicillin/streptomycin (obtained from Invitrogen, Carlsbad, Calif.) or in other media as indicated. On the day of transfection, cells were plated at different densities depending on the cell type used. The cells were transfected with intramolecular recombination assay plasmid alone or along with varying amounts of recombinase expression plasmid DNA using Lipofectamine 2000™ according to the manufacturers instructions (Invitrogen, Carlsbad, Calif.). Constitutively expressed Renilla luciferase reporter plasmid (pRL-CMV from Promega, Madison, Wis.) was co-transfected (2 ng/well) and used as an internal control to normalize the data. Twenty-four or forty-eight hours after transfection (depending on the cell line), media was discarded and cells were lysed with passive lysis buffer (Promega, Madison, Wis.). Extracts were then assayed using Dual Luciferase Assay kit (Promega, Madison, Wis.) on a plate reader equipped with injectors (Dynex Technologies, Chantilly, Va.). The data shown are the ratios of luciferase (Luc) and Renilla luciferase (RLuc) activities, unless noted otherwise. Similar results were observed when Luc activities (relative light units) were compared (data not shown). […]

Data set [2] has as its target T1, A118 recombinase. Kind of data set: cell_activity; partner of N7, tobacco BY2 protoplasts; chromosomal integration also seen (Tables 1-2). The method, then:
as §1

B1: A118 attP (dsDNA)
DNA 1: ACGCTAGTAGCTTGTTTATTTAGATTGTTTAGTTCCTCGTTTTCTCTCGTTGGAAGAAGAAGAAACGAGAAACTAAAATTATAAATAAAAAGTAACCTA
DNA 2: TAGGTTACTTTTTATTTATAATTTTAGTTTCTCGTTTCTTCTTCTTCCAACGAGAGAAAACGAGGAACTAAACAATCTAAATAAACAAGCTACTAGCGT
Regarding B1, the activity with A118 recombinase [1] was 364 fold induction.

B2: Bxb1 attB (dsDNA)
DNA 1: GGCCGGCTTGTCGACGACGGCGGTCTCCGTCGTCAGGATCATCCGG
DNA 2: CCGGATGATCCTGACGACGGAGACCGCCGTCGTCGACAAGCCGGCC
As to B2, the activity in the data set with Bxb1 recombinase came out at 66 fold induction.

B3: A118 attB (dsDNA)
DNA 1: TTGAGCTAATTAAAACCAGCTGTAACTTTTTCGGATCAAGCTATGAAGGACGCAAAGAGGGAACTAAACACTTAATTGGTGTTACCCATAAGCCAC
DNA 2: GTGGCTTATGGGTAACACCAATTAAGTGTTTAGTTCCCTCTTTGCGTCCTTCATAGCTTGATCCGAAAAAGTTACAGCTGGTTTTAATTAGCTCAA
For B3, the activity with A118 recombinase [2] was found to be 364 fold induction.
